The values that follow come from patent publication US20260167699A1 (Chugai, published 2026).

The assay has as its target T1, FcγRIIIaV (human, UniProt P08637 17-208).
T1 construct: extracellular domain
Put plainly: SPR (Biacore), antibody captured, FcγR as analyte, 1:1 Langmuir fit. Background: Surface plasmon resonance follows binding to a sensor surface in real time, without labels.

T1 sequence (P08637 other isoform, or with tags, fused parts or gaps): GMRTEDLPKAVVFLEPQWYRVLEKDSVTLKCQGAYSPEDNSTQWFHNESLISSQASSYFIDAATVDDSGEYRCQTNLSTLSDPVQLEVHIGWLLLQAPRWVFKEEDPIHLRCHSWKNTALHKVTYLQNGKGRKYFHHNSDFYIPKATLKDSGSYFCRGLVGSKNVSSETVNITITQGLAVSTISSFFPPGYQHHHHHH

B1: Kn125-L4-GS11 (antibody, human IgG1, kappa)
heavy 1: QDQLVQSGAEVKKPGASVKVSCKASGFNIKDTYIQWVRQAPGQGLEWMGRIDPLRKQTKYREKFEGRVTITADTSTNTAYMELSSLRSEDTAVYYCVRSGREFDYWGQGTLVTVSSASTKGPSVFPLAPSSKSTSGGTAALGCLVKDYFPEPVTVSWNSGALTSGVHTFPAVLQSSGLYSLSSVVTVPSSSLGTQTYICNVNHKPSNTKVDKKVEPKSCDKTHTCPPCPAPELLGGPSVFLFPPKPKDTLMISRTPEVTCVVVDVSHEEPEVKFNWYVDGVEVHNAKTKPREEQYNSTYRVVSVLTVLHQDWLNGKEYKCKVSNDALPMPIEETISKAKGQPREPQVYTLPPSRCELTKNQVSLSCAVKGFYPSDIAVEWESNGQPENNYKTTPPVLDSDGSFFLVSKLTVDKSRWQQGNVFSCSVMHEALHNHYTQKSLSLSP
heavy 2: QDQLVQSGAEVKKPGASVKVSCKASGFNIKDTYIQWVRQAPGQGLEWMGRIDPLRKQTKYREKFEGRVTITADTSTNTAYMELSSLRSEDTAVYYCVRSGREFDYWGQGTLVTVSSASTKGPSVFPLAPSSKSTSGGTAALGCLVKDYFPEPVTVSWNSGALTSGVHTFPAVLQSSGLYSLSSVVTVPSSSLGTQTYICNVNHKPSNTKVDKKVEPKSCDKTHTCPPCPAPEYQWGPMVFLFPPKPKDTLMISRTPEVTCVVVDVSDEEPEVKFNWYVDGVEVHNAKTKPREEQYNATYRVVSVLTVLHQDWLNGKEYKCKVSNGGSGGGSGGGSPIEKTISKAKGQPREPQVCTLPPSRDELTKNQVSLWCLVKGFYPSDIAVEWESNGQPENNYKTTPPVLDSDGSFFLYSKLTVDKSRWQQGNVFSCSVMHEALHNHYTQKSLSLSP
light: DIQMTQSPSSLSASVGDRVTITCRASQDIHKYIAWYQQKPGQAPRLLIQYTSTLQPGVPSRFSGSGSGTDYTFTISSLQPEDIATYYCLQYEQLRTFGGGTKVEIKRTVAAPSVFIFPPSDEQLKSGTASVVCLLNNFYPREAKVQWKVDNALQSGNSQESVTEQDSKDSTYSLSSTLTLSKADYEKHKVYACEVTHQGLSSPVTKSFNRGEC
notes: heterodimerized anti-EREG antibody: altered H240-Kn125 chain (Gly/Ser peptide in loop) with H240-Hl076 and L73-k0
For orientation: Kd means the free concentration of one partner at which half of the binding sites on the other are occupied at equilibrium, for simple one-to-one binding. A higher Kd goes with a looser complex. B1: the dissociation constant (Kd) is 1.5 nM.

B2: Kn125-L2a-6 (antibody, human IgG1, kappa)
heavy 1: QDQLVQSGAEVKKPGASVKVSCKASGFNIKDTYIQWVRQAPGQGLEWMGRIDPLRKQTKYREKFEGRVTITADTSTNTAYMELSSLRSEDTAVYYCVRSGREFDYWGQGTLVTVSSASTKGPSVFPLAPSSKSTSGGTAALGCLVKDYFPEPVTVSWNSGALTSGVHTFPAVLQSSGLYSLSSVVTVPSSSLGTQTYICNVNHKPSNTKVDKKVEPKSCDKTHTCPPCPAPELLGGPSVFLFPPKPKDTLMISRTPEVTCVVVDVSHEEPEVKFNWYVDGVEVHNAKTKPREEQYNSTYRVVSVLTVLHQDWLNGKEYKCKVSNDALPMPIEETISKAKGQPREPQVYTLPPSRCELTKNQVSLSCAVKGFYPSDIAVEWESNGQPENNYKTTPPVLDSDGSFFLVSKLTVDKSRWQQGNVFSCSVMHEALHNHYTQKSLSLSP
heavy 2: QDQLVQSGAEVKKPGASVKVSCKASGFNIKDTYIQWVRQAPGQGLEWMGRIDPLRKQTKYREKFEGRVTITADTSTNTAYMELSSLRSEDTAVYYCVRSGREFDYWGQGTLVTVSSASTKGPSVFPLAPSSKSTSGGTAALGCLVKDYFPEPVTVSWNSGALTSGVHTFPAVLQSSGLYSLSSVVTVPSSSLGTQTYICNVNHKPSNTKVDKKVEPKSCDKTHTCPPCPAPEYQWGPMVFLFPPKPKDTLMISRTPEVTCVVVDVSDEGGSGGSEPEVKFNWYVDGVEVHNAKTKPREEQYNATYRVVSVLTVLHQDWLNGKEYKCKVSNKALPAPIEKTISKAKGQPREPQVCTLPPSRDELTKNQVSLWCLVKGFYPSDIAVEWESNGQPENNYKTTPPVLDSDGSFFLYSKLTVDKSRWQQGNVFSCSVMHEALHNHYTQKSLSLSP
light: DIQMTQSPSSLSASVGDRVTITCRASQDIHKYIAWYQQKPGQAPRLLIQYTSTLQPGVPSRFSGSGSGTDYTFTISSLQPEDIATYYCLQYEQLRTFGGGTKVEIKRTVAAPSVFIFPPSDEQLKSGTASVVCLLNNFYPREAKVQWKVDNALQSGNSQESVTEQDSKDSTYSLSSTLTLSKADYEKHKVYACEVTHQGLSSPVTKSFNRGEC
notes: as for B1
B2 registered a Kd of 9.2 nM.

B3: Kn125-L2a-3 (antibody, human IgG1, kappa)
heavy 1: QDQLVQSGAEVKKPGASVKVSCKASGFNIKDTYIQWVRQAPGQGLEWMGRIDPLRKQTKYREKFEGRVTITADTSTNTAYMELSSLRSEDTAVYYCVRSGREFDYWGQGTLVTVSSASTKGPSVFPLAPSSKSTSGGTAALGCLVKDYFPEPVTVSWNSGALTSGVHTFPAVLQSSGLYSLSSVVTVPSSSLGTQTYICNVNHKPSNTKVDKKVEPKSCDKTHTCPPCPAPELLGGPSVFLFPPKPKDTLMISRTPEVTCVVVDVSHEEPEVKFNWYVDGVEVHNAKTKPREEQYNSTYRVVSVLTVLHQDWLNGKEYKCKVSNDALPMPIEETISKAKGQPREPQVYTLPPSRCELTKNQVSLSCAVKGFYPSDIAVEWESNGQPENNYKTTPPVLDSDGSFFLVSKLTVDKSRWQQGNVFSCSVMHEALHNHYTQKSLSLSP
heavy 2: QDQLVQSGAEVKKPGASVKVSCKASGFNIKDTYIQWVRQAPGQGLEWMGRIDPLRKQTKYREKFEGRVTITADTSTNTAYMELSSLRSEDTAVYYCVRSGREFDYWGQGTLVTVSSASTKGPSVFPLAPSSKSTSGGTAALGCLVKDYFPEPVTVSWNSGALTSGVHTFPAVLQSSGLYSLSSVVTVPSSSLGTQTYICNVNHKPSNTKVDKKVEPKSCDKTHTCPPCPAPEYQWGPMVFLFPPKPKDTLMISRTPEVTCVVVDVSDEGGSEPEVKFNWYVDGVEVHNAKTKPREEQYNATYRVVSVLTVLHQDWLNGKEYKCKVSNKALPAPIEKTISKAKGQPREPQVCTLPPSRDELTKNQVSLWCLVKGFYPSDIAVEWESNGQPENNYKTTPPVLDSDGSFFLYSKLTVDKSRWQQGNVFSCSVMHEALHNHYTQKSLSLSP
light: DIQMTQSPSSLSASVGDRVTITCRASQDIHKYIAWYQQKPGQAPRLLIQYTSTLQPGVPSRFSGSGSGTDYTFTISSLQPEDIATYYCLQYEQLRTFGGGTKVEIKRTVAAPSVFIFPPSDEQLKSGTASVVCLLNNFYPREAKVQWKVDNALQSGNSQESVTEQDSKDSTYSLSSTLTLSKADYEKHKVYACEVTHQGLSSPVTKSFNRGEC
notes: as for B1
B3: binding was put at a Kd of 10 nM.

B4: Kn125-L2b-3 (antibody, human IgG1, kappa)
heavy 1: QDQLVQSGAEVKKPGASVKVSCKASGFNIKDTYIQWVRQAPGQGLEWMGRIDPLRKQTKYREKFEGRVTITADTSTNTAYMELSSLRSEDTAVYYCVRSGREFDYWGQGTLVTVSSASTKGPSVFPLAPSSKSTSGGTAALGCLVKDYFPEPVTVSWNSGALTSGVHTFPAVLQSSGLYSLSSVVTVPSSSLGTQTYICNVNHKPSNTKVDKKVEPKSCDKTHTCPPCPAPELLGGPSVFLFPPKPKDTLMISRTPEVTCVVVDVSHEEPEVKFNWYVDGVEVHNAKTKPREEQYNSTYRVVSVLTVLHQDWLNGKEYKCKVSNDALPMPIEETISKAKGQPREPQVYTLPPSRCELTKNQVSLSCAVKGFYPSDIAVEWESNGQPENNYKTTPPVLDSDGSFFLVSKLTVDKSRWQQGNVFSCSVMHEALHNHYTQKSLSLSP
heavy 2: QDQLVQSGAEVKKPGASVKVSCKASGFNIKDTYIQWVRQAPGQGLEWMGRIDPLRKQTKYREKFEGRVTITADTSTNTAYMELSSLRSEDTAVYYCVRSGREFDYWGQGTLVTVSSASTKGPSVFPLAPSSKSTSGGTAALGCLVKDYFPEPVTVSWNSGALTSGVHTFPAVLQSSGLYSLSSVVTVPSSSLGTQTYICNVNHKPSNTKVDKKVEPKSCDKTHTCPPCPAPEYQWGPMVFLFPPKPKDTLMISRTPEVTCVVVDVSDEEGGSPEVKFNWYVDGVEVHNAKTKPREEQYNATYRVVSVLTVLHQDWLNGKEYKCKVSNKALPAPIEKTISKAKGQPREPQVCTLPPSRDELTKNQVSLWCLVKGFYPSDIAVEWESNGQPENNYKTTPPVLDSDGSFFLYSKLTVDKSRWQQGNVFSCSVMHEALHNHYTQKSLSLSP
light: DIQMTQSPSSLSASVGDRVTITCRASQDIHKYIAWYQQKPGQAPRLLIQYTSTLQPGVPSRFSGSGSGTDYTFTISSLQPEDIATYYCLQYEQLRTFGGGTKVEIKRTVAAPSVFIFPPSDEQLKSGTASVVCLLNNFYPREAKVQWKVDNALQSGNSQESVTEQDSKDSTYSLSSTLTLSKADYEKHKVYACEVTHQGLSSPVTKSFNRGEC
notes: as for B1
Turning to B4, the dissociation constant Kd was 7.8 nM.

B5: Kn125-L4-6 (antibody, human IgG1, kappa)
heavy 1: QDQLVQSGAEVKKPGASVKVSCKASGFNIKDTYIQWVRQAPGQGLEWMGRIDPLRKQTKYREKFEGRVTITADTSTNTAYMELSSLRSEDTAVYYCVRSGREFDYWGQGTLVTVSSASTKGPSVFPLAPSSKSTSGGTAALGCLVKDYFPEPVTVSWNSGALTSGVHTFPAVLQSSGLYSLSSVVTVPSSSLGTQTYICNVNHKPSNTKVDKKVEPKSCDKTHTCPPCPAPELLGGPSVFLFPPKPKDTLMISRTPEVTCVVVDVSHEEPEVKFNWYVDGVEVHNAKTKPREEQYNSTYRVVSVLTVLHQDWLNGKEYKCKVSNDALPMPIEETISKAKGQPREPQVYTLPPSRCELTKNQVSLSCAVKGFYPSDIAVEWESNGQPENNYKTTPPVLDSDGSFFLVSKLTVDKSRWQQGNVFSCSVMHEALHNHYTQKSLSLSP
heavy 2: QDQLVQSGAEVKKPGASVKVSCKASGFNIKDTYIQWVRQAPGQGLEWMGRIDPLRKQTKYREKFEGRVTITADTSTNTAYMELSSLRSEDTAVYYCVRSGREFDYWGQGTLVTVSSASTKGPSVFPLAPSSKSTSGGTAALGCLVKDYFPEPVTVSWNSGALTSGVHTFPAVLQSSGLYSLSSVVTVPSSSLGTQTYICNVNHKPSNTKVDKKVEPKSCDKTHTCPPCPAPEYQWGPMVFLFPPKPKDTLMISRTPEVTCVVVDVSDEEPEVKFNWYVDGVEVHNAKTKPREEQYNATYRVVSVLTVLHQDWLNGKEYKCKVSNKGGSGGSALPAPIEKTISKAKGQPREPQVCTLPPSRDELTKNQVSLWCLVKGFYPSDIAVEWESNGQPENNYKTTPPVLDSDGSFFLYSKLTVDKSRWQQGNVFSCSVMHEALHNHYTQKSLSLSP
light: DIQMTQSPSSLSASVGDRVTITCRASQDIHKYIAWYQQKPGQAPRLLIQYTSTLQPGVPSRFSGSGSGTDYTFTISSLQPEDIATYYCLQYEQLRTFGGGTKVEIKRTVAAPSVFIFPPSDEQLKSGTASVVCLLNNFYPREAKVQWKVDNALQSGNSQESVTEQDSKDSTYSLSSTLTLSKADYEKHKVYACEVTHQGLSSPVTKSFNRGEC
notes: as for B1
Molecule B5 registered a Kd of 1.7 nM.
